Here are results for 2 molecules from patent US5466669A, “Immunostimulatory agent” (Morinaga Milk Industry Co., Ltd., priority 1993, dated 1995).

Holding throughout (type): cell-based
Test [1] concerns rat peritoneal mast cells. As to the kind of experiment: Test 1: histamine release from rat peritoneal mast cells induced by calcium ionophore A23187. The conditions noted are these: for Histamine release (Relative %): A23187 5 μM, control (saline) = 100; for activity to promote the release of histamine from mast cells induced by A23187 (in words): 1 to 100 ppm. The method, then:
This test was performed to study the activity of the peptide of the present invention to promote the release of histamine from rat peritoneal mast cells induced by the calcium ionophore A23187.
Peritoneal cells were collected from Wistar rats after intraperitoneal injection of phosphate-buffered saline (consisting of 120 mM NaCl, 10 mM Na2 PO4, 3 mM KH2 PO4, pH 7.4). Their abdoments were massaged and the buffer containing the cells was recovered. The cells were centrifuged at 300×g for 15 min and washed twice with phosphate-buffered saline. The cells from several rats were pooled for use in the experiments.
Rat peritoneal cells containing about 1×10^5 mast cells per ml were used as the target cells. A 500 μl volume of the cell suspension was incubated with 100 μl volume of the test substance [purified peptide obtained by the method as in Example 1, or human lactoferrin (Sigma Chemical Co.), or bovine lactoferrin (Morinaga Milk industry Co.)] at 37° C. for 3O min. Thereafter, histamine release from the mast cells was induced by the addition of calcium ionophore A23187 (Sigma Chemical Co.) at a final concentration of 5 μM. After 10 min of incubation the cells were centrifuged at 300×g for 15 min and the supernatant was removed and deproteinized by the addition of 2 ml of HClO4 (2%). The deproteinized sample was then centrifuged at 2000×g for 20 min and the histamine content in the supernatant was determined by the fluorophotometric analyser technique (AutoAnalyzer: Technikon). Cells in the presence of phosphate-buffered saline served as control.

Test [2] relates to rat peritoneal mast cells. Description: Test 2: histamine release from rat peritoneal mast cells induced by α-toxin-producing Staphylococcus aureus cells. The conditions noted are these: for Histamine release (Relative %): S. aureus 121 about 1.0×10^8 cells per ml, control (saline) = 100; for activity to promote the release of histamine from mast cells induced by α-toxin-producing Staphylococcus aureus cells (in words): 1 to 100 ppm. The method, then: This test was performed to study the activity of the peptide of the present invention to promote the release of histamine from rat peritoneal mast cells induced by α-toxin-producing Staphylococcus aureus cells.
Staphylococcus aureus 121, an α-toxin-producing strain, was cultured overnight in Brain Heart Infusion broth at 37° C. The bacterial cells were collected by centrifugation at 4000×g for 20 min, washed with phosphate-buffered saline, and suspended in the same buffer for use in the experiment. Rat peritoneal cells were prepared as in Test 1.
The same method as in Test 1 was used, except histamine release from the mast cells was induced by the addition of α-toxin-producing Staphylococcus aureus cells at a final concentration of about 1.0×10^8 cells per ml.

Test [3] relates to human polymorphonuclear neutrophils. Description: Test 3: leukotriene release from human polymorphonuclear neutrophils induced by calcium ionophore A23187. The conditions noted are these: for Leukotriene released (ng) B4 / Leukotriene released (ng) C4 / Leukotriene released (ng) 20-COOH / Leukotriene released (ng) 20-OH: A23187 5 μM; for Leukotriene released (ng) B4: saline control 12; for Leukotriene released (ng) C4: saline control 18; for Leukotriene released (ng) 20-COOH: saline control 31; for Leukotriene released (ng) 20-OH: saline control 55; for Leukotriene released (ng) (Total B4): sum of B4, 20-OH and 20-COOH, saline control 98; for activity to promote the release of leukotriene B4 from polymorphonuclear neutrophils (in words): 1 to 100 ppm. On the procedure: This test was performed to study the activity of the peptide of the present invention to promote the release of leukotriene B4 from human polymorphonuclear neutrophils induced by the calcium ionophore A23187.
Human polymorphonuclear neutrophils were prepared by fractionation of leukocytes from heparinized blood of healthy donors on a Ficoll-metrizoategradient followed by dextran sedimentation. The cells were centrifuged at 300×g, and washed three times with phosphate-buffered saline, after which less than 2% of the platelets remained. Erythrocytes were removed by exposing the cells to hypotonic conditions. The purity of the polymorphonuclear neutrophil fraction used was greater than 97% as confirmed by light microscopy.
For analysis of leukotriene release, human neutrophils suspended in phosphate-buffered saline at approximately 1×10^7 cells per ml were used as the target cells. The cells were incubated for 30 min in the presence of test substance [(purified peptide obtained by the method as in Example 1, or human lactoferrin (Sigma Chemical Co.), or bovine lactoferrin (Morinaga Milk Industry Co.)]. Leukotriene release from the neutrophils was then induced by the addition of calcium ionophore A23187 (Sigma chemical Co.) at a final concentration of 5 μM. After 30 min, the supernatants of the stimulated cells were deproteinized by addition of 2 ml of methanol-acetonitrile (1:1) overlaid with nitrogen and frozen for 12 h at -70° C. After centrifugation at 1000×g for 15 min the supernatant was evaporated to dryness in a freeze dryer, suspended in 0.5 ml of methanol-water (30:70), overlaid with nitrogen, and stored overnight at -70° C. The samples were centrifuged at 1000×g and the supernatant was assayed for the presence of leukotrienes by high pressure liquid chromatography using a reverse-phase column of Nucleosil (C18; 5 μm particles) at a column temperature of 40° C. The solvent system was a mixture of phosphate buffer (17 mM K2 HPO4 containing 0.05% EDTA), acetonitrile, and methanol (50:30:20) adjusted to pH 5.0 with phosphoric acid. The absorbance at 280 nm of the column effluent was monitored and recorded. The concentration of each eluted leukotriene was determined from the peak area by means of a computing integrator. The leukotrienes were identified from their retention times with reference to known standards. The minimum detectable quantity was 1 ng in each instance.

B1: lactoferrin, human: human lactoferrin (Sigma Chemical Co.) (protein, UniProt P02788 20-710, looked up)
Lactotransferrin: GRRRSVQWCAVSQPEATKCFQWQRNMRKVRGPPVSCIKRDSPIQCIQAIAENRADAVTLDGGFIYEAGLAPYKLRPVAAEVYGTERQPRTHYYAVAVVKKGGSFQLNELQGLKSCHTGLRRTAGWNVPIGTLRPFLNWTGPPEPIEAAVARFFSASCVPGADKGQFPNLCRLCAGTGENKCAFSSQEPYFSYSGAFKCLRDGAGDVAFIRESTVFEDLSDEAERDEYELLCPDNTRKPVDKFKDCHLARVPSHAVVARSVNGKEDAIWNLLRQAQEKFGKDKSPKFQLFGSPSGQKDLLFKDSAIGFSRVPPRIDSGLYLGSGYFTAIQNLRKSEEEVAARRARVVWCAVGEQELRKCNQWSGLSEGSVTCSSASTTEDCIALVLKGEADAMSLDGGYVYTAGKCGLVPVLAENYKSQQSSDPDPNCVDRPVEGYLAVAVVRRSDTSLTWNSVKGKKSCHTAVDRTAGWNIPMGLLFNQTGSCKFDEYFSQSCAPGSDPRSNLCALCIGDEQGENKCVPNSNERYYGYTGAFRCLAENAGDVAFVKDVTVLQNTDGNNNEAWAKDLKLADFALLCLDGKRKPVTEARSCHLAMAPNHAVVSRMDKVERLKQVLLHQQAKFGRNGSDCPDKFCLFQSETKNLLFNDNTECLARLHGKTTYEKYLGPQYVAGITNLKKCSTSPLLEACEFLRK
Take B1: the “Histamine release (Relative %)” value is 115 ± 20 Relative % in test [1] (1 ppm test substance); 110 ± 10 Relative % in test [1] (10 ppm test substance); 100 ± 10 Relative % in test [1] (100 ppm test substance); 180 ± 5 Relative % in test [2] (1 ppm test substance); 115 ± 15 Relative % in test [2] (10 ppm test substance); 120 ± 20 Relative % in test [2] (100 ppm test substance). In test [1], the “activity to promote the release of histamine from mast cells induced by A23187 (in words)” value is “little, if any, such activity”. In addition, the “activity to promote the release of histamine from mast cells induced by α-toxin-producing Staphylococcus aureus cells (in words)” value in test [2] is recorded as “little, if any, such activity”. For the same molecule, the “Leukotriene released (ng) B4” value in test [3] (1 ppm test substance) is reported as 11 ng; in test [3] (10 ppm test substance), 10 ng; in test [3] (100 ppm test substance) it was 10 ng. Besides, the “Leukotriene released (ng) C4” value in test [3] (1 ppm test substance) was found to be 12 ng; in test [3] (10 ppm test substance) it was 13 ng; in test [3] (100 ppm test substance), 17 ng. Also, the figures for the “Leukotriene released (ng) 20-COOH” value in test [3] (1 ppm test substance), in test [3] (10 ppm test substance) and in test [3] (100 ppm test substance) were 41 ng, 26 ng and 26 ng, respectively. For the same molecule, the “Leukotriene released (ng) 20-OH” value turned out to be 80 ng in test [3] (1 ppm test substance), 50 ng in test [3] (10 ppm test substance) and 42 ng in test [3] (100 ppm test substance). Besides, the “Leukotriene released (ng) (Total B4)” value in test [3] (1 ppm test substance) is 131 ng; in test [3] (10 ppm test substance), 86 ng; in test [3] (100 ppm test substance) it was 76 ng. Also, in test [3], the “activity to promote the release of leukotriene B4 from polymorphonuclear neutrophils (in words)” value was “little, if any, such activity”.

B2: lactoferrin, bovine: bovine lactoferrin (Morinaga Milk industry Co.) (protein, UniProt P24627 20-708, looked up)
Lactotransferrin: APRKNVRWCTISQPEWFKCRRWQWRMKKLGAPSITCVRRAFALECIRAIAEKKADAVTLDGGMVFEAGRDPYKLRPVAAEIYGTKESPQTHYYAVAVVKKGSNFQLDQLQGRKSCHTGLGRSAGWIIPMGILRPYLSWTESLEPLQGAVAKFFSASCVPCIDRQAYPNLCQLCKGEGENQCACSSREPYFGYSGAFKCLQDGAGDVAFVKETTVFENLPEKADRDQYELLCLNNSRAPVDAFKECHLAQVPSHAVVARSVDGKEDLIWKLLSKAQEKFGKNKSRSFQLFGSPPGQRDLLFKDSALGFLRIPSKVDSALYLGSRYLTTLKNLRETAEEVKARYTRVVWCAVGPEEQKKCQQWSQQSGQNVTCATASTTDDCIVLVLKGEADALNLDGGYIYTAGKCGLVPVLAENRKSSKHSSLDCVLRPTEGYLAVAVVKKANEGLTWNSLKDKKSCHTAVDRTAGWNIPMGLIVNQTGSCAFDEFFSQSCAPGADPKSRLCALCAGDDQGLDKCVPNSKEKYYGYTGAFRCLAEDVGDVAFVKNDTVWENTNGESTADWAKNLNREDFRLLCLDGTRKPVTEAQSCHLAVAPNHAVVSRSDRAAHVKQVLLHQQALFGKNGKNCPDKFCLFKSETKNLLFNDNTECLAKLGGRPTYEEYLGTEYVTAIANLKKCSTSPLLEACAFLTR
With B2, the “Histamine release (Relative %)” value is 105 ± 25 Relative % in test [1] (1 ppm test substance); 110 ± 20 Relative % in test [1] (10 ppm test substance); 125 ± 25 Relative % in test [1] (100 ppm test substance); 150 ± 10 Relative % in test [2] (1 ppm test substance); 160 ± 10 Relative % in test [2] (10 ppm test substance); 110 ± 15 Relative % in test [2] (100 ppm test substance). Moreover, in test [1], the “activity to promote the release of histamine from mast cells induced by A23187 (in words)” value is on record as “little, if any, such activity”. For the same molecule, the “activity to promote the release of histamine from mast cells induced by α-toxin-producing Staphylococcus aureus cells (in words)” value in test [2] is reported as “little, if any, such activity”. Moreover, the results for the “Leukotriene released (ng) B4” value in test [3] (1 ppm test substance), in test [3] (10 ppm test substance) and in test [3] (100 ppm test substance) were 9 ng, 11 ng and 11 ng, respectively. Besides, the “Leukotriene released (ng) C4” value in test [3] (1 ppm test substance) is given as 17 ng; in test [3] (10 ppm test substance) it was 15 ng; in test [3] (100 ppm test substance), 15 ng. In addition, the “Leukotriene released (ng) 20-COOH” value in test [3] (1 ppm test substance) turned out to be 41 ng; in test [3] (10 ppm test substance) it was 36 ng; in test [3] (100 ppm test substance), 35 ng. Moreover, the “Leukotriene released (ng) 20-OH” value in test [3] (1 ppm test substance) is 50 ng; in test [3] (10 ppm test substance), 60 ng; in test [3] (100 ppm test substance), 59 ng. Further, the “Leukotriene released (ng) (Total B4)” value in test [3] (1 ppm test substance) was determined as 100 ng; in test [3] (10 ppm test substance) it was 107 ng; in test [3] (100 ppm test substance), 105 ng. For the same molecule, the “activity to promote the release of leukotriene B4 from polymorphonuclear neutrophils (in words)” value in test [3] is “little, if any, such activity”.
